In paper PMC8686763, “Pre-Steady-State Kinetics of the SARS-CoV-2 Main Protease as a Powerful Tool for Antiviral Drug Discovery” (Frontiers in Pharmacology, 2021):

Biological target: FRET substrate Dabcyl-[…]-E(Edans)-NH2 (SARS-CoV-2)
Assay: stopped-flow fluorescence kinetics (FRET signal of the Edans/Dabcyl peptide)

Q: With “SARS-CoV-2 main protease, catalytically inactive mutant C145A (enzyme)” as the substance, how does the Ka read?
A: 1.6e+06 M⁻¹

Q: What about the Kd of the same substance?
A: 600 nM

Q: And the koff?
A: 0.18 s⁻¹

Q: And the kon?
A: 280000 M⁻¹ s⁻¹
